Data on one molecule can be found in publication PMC7244016, “Knock-down of the TIM/TIPIN complex promotes apoptosis in melanoma cells” (Oncotarget, 2020).

The test addresses T1, Timeless (TIM), full length, FLAG-tagged (human, UniProt Q9UNS1 1-1208).
T1 construct: expressed from pcDNA4-Flag-Timeless; The plasmid is named Flag-Timeless; the results speak of a fused 3xFLAG-tag; also called flag-TIM; pcDNA4-Flag-Timeless
T1 sequence (looked up): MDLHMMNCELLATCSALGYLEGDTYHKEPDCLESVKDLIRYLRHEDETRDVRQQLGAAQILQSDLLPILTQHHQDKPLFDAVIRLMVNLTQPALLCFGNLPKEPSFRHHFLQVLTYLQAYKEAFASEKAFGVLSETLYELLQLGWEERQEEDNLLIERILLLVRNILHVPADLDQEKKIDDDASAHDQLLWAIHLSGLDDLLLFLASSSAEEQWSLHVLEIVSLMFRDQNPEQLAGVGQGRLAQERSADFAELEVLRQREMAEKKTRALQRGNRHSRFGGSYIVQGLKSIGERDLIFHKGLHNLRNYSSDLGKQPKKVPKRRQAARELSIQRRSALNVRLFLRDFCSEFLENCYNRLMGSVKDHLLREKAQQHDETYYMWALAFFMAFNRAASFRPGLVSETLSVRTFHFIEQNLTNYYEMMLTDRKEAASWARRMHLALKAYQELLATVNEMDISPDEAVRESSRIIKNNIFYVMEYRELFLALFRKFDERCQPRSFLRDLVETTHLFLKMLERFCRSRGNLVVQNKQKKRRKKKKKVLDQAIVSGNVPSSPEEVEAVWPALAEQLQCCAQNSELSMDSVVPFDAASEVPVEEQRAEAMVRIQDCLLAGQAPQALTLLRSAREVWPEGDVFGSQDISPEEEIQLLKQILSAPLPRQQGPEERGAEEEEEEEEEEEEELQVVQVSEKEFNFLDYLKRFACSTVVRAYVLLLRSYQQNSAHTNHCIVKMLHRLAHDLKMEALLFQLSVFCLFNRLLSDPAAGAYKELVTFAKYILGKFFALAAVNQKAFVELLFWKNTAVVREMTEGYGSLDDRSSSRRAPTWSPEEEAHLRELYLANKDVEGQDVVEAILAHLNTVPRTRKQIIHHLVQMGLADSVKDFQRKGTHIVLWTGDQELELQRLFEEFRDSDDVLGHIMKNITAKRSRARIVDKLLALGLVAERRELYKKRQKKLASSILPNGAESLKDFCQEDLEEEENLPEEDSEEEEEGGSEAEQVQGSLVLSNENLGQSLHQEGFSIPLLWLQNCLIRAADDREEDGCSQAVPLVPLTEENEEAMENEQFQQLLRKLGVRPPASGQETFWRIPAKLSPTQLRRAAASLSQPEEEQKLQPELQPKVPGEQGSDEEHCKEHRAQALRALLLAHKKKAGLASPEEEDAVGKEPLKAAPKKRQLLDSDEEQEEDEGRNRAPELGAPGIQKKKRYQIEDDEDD
As to the kind of experiment: SEC; complex co-expressed in 293F cells and FLAG-purified; Superose 6 column in 50 mM HEPES pH 7.8, 150 mM NaCl, 0.5 mM TCEP; peak fractions checked by SDS-PAGE/Coomassie and immunoblot with TIM and TIPIN antibodies. The following applies: both partners purified. In general terms: In gel filtration, larger molecules generally elute earlier.

B1: TIM-interacting protein (TIPIN), full length, FLAG-tagged (natural protein, human, UniProt Q9BVW5 1-301, looked up)
chain: MLEPQENGVIDLPDYEHVEDETFPPFPPPASPERQDGEGTEPDEESGNGAPVRVPPKRTVKRNIPKLDAQRLISERGLPALRHVFDKAKFKGKGHEAEDLKMLIRHMEHWAHRLFPKLQFEDFIDRVEYLGSKKEVQTCLKRIRLDLPILHEDFVSNNDEVAENNEHDVTSTELDPFLTNLSESEMFASELSRSLTEEQQQRIERNKQLALERRQAKLLSNSQTLGNDMLMNTPRAHTVEEVNTDEDQKEESNGLNEDILDNPCNDAIANTLNEEETLLDQSFKNVQQQLDATSRNITEAR
notes: expressed from pcDNA3-Flag-Tipin; also called flag-TIPIN; pcDNA3-Flag-Tipin
For the molecule B1, the “stoichiometry N” value worked out at 1.

A word on the stoichiometry N: it is a count of units in the complex or per binding partner.
